{
  "source": "paper PMC6839023",
  "about": "“Structure of the UspA1 protein fragment from Moraxella catarrhalis responsible for C3d binding” (Journal of Structural Biology, 2019)",
  "target": "the molecule itself",
  "assay": "crystal structure; UspA1 299-452 (2.4 mg/ml) mixed 1:3 with C3d (10.7 mg/ml); 1,6-hexanediol, 0.1 M Tris-HCl pH 8.5, 20 mM MgCl2; 2.5 Å; the crystals held only UspA1 299-452",
  "data": [
    {"protein": "UspA1^299–452 (ubiquitous surface protein A1 fragment, residues 299–452) (domain or fragment, fluorescently labelled with the Monolith NT His-Tag Labelling Kit RED-tris-NTA (thermophoresis only), UspA1 of Moraxella catarrhalis strain ATCC 25238 (BC5), GenBank AAD43465, residues 299-452: part of the long neck (299-336) and of the stalk (337-452); Cloned NdeI/HindIII into pET22b(+); No thrombin cleavage is described; Trimer in the crystal; also called UspA1 fragment (amino acids 299–452); UspA^299–452; source: E. coli BL21(DE3), purified (NiNTA, Superdex 200)) not shown", "values": [
      {"measurement": "stoichiometry N", "result": 3}
    ]}
  ]
}
